Tests used:
AML cell lines = test: Apoptosis (AnnexinV/7AAD) in AML cell lines; type: cell-based, human; conditions: 50 μg/ml, forty-eight hours, vs IgG control
Protocol: FIG. 9. […] Forty-eight hours after IgG control vs. @E7 antibody treatment (50 μg/ml) of AML cell lines apoptosis was evaluated by AnnexinV/7AAD staining. * indicates P<0.05, ** indicates P<0.01.
For the evaluation of apoptosis, cells were stained with Annexin V and 7-AAD as previously described^16, 21 For the evaluation of cell proliferation, AML cell lines were incubated with BrdU, fixed, permeabilized and stained with APC-conjugated anti-BrdU antibody, according to the instructions of the manufacturer (BD Biosciences) and as previously described^16, 21 The proliferating fraction of the cells (i.e., the BrdU positive cells) was evaluated with flow cytometry (LSRII, BD Biosciences). For cell differentiation analysis, cells were stained with an anti-CD11B antibody (BD Biosciences) and analyzed by flow cytometry.

HEY1 mRNA = HEY1 mRNA qRT-PCR in primary AML blasts; type: cell-based, human; conditions: 100 μg/ml, 2 and 10 h, vs IgG
Protocol: FIG. 26. Blocking EGFL7 increases the NOTCH downstream target, HEY1, in human AML patient blasts (A) Primary blasts from AML patients were cultured in SFEM medium with 10% FBS in the absence or presence of 100 μg/ml of IgG or anti-human EGFL7 antibody for 2 and 10 h. Total RNAs were extracted for qRT-PCR analysis of HEY1 mRNA with β-ACTIN as internal control. *p<0.05, ***p<0.001 vs IgG; ns=not significant.
Total RNA was extracted using Trizol reagent (Invitrogen, Carlsbad, Calif., USA). cDNA was synthesized using SuperScript III reagents (Invitrogen) according to the manufacturer's instruction. Quantitative Real-Time RT-PCR was performed using commercially available TaqMan Gene Expression Assay primers and the 7900HT Fast Real-Time PCR System (Applied Biosystems, Foster City, Calif., USA). The expression levels of target genes were normalized to β-ACTIN. Relative expression was calculated by using the comparative 2^−ΔΔct method.

[1] = system: non-small cell lung cancer; conditions: mouse, in vivo; cited from earlier work
THP-1 cells = test: Apoptosis (AnnexinV+ FACS), THP-1; type: cell-based, human; conditions: anti-EGFL7 treatment
Protocol: FIG. 24A-24G. EGFL7 prevents activation of NOTCH signaling in AML cells. (FIG. 24A) Overview of experiments using DLL4-FC and IgG-FC control coated plates to induce NOTCH activation. (FIG. 24B) THP-1 cells were pre-treated with 10 μM γ-secretase inhibitor (AVA), 100 μg/ml anti-EGFL7 antibody or 0.25 μM rEGFL7 for 30 min, then transferred to IgG-Fc or DLL4-Fc coated plates. After 4 h of incubation total RNA from THP-1 cells was extracted for qRT-PCR analysis of HES1 with β-ACTIN as internal control. ^###P<0.001 DLL4-FC vs IgG-FC; ***P<0.001 DLL4+AVA, DLL4+rEGFL7, and DLL4+anti-EGFL7 vs DLL4-FC. […] THP-1 cells were treated with the indicated concentration of anti-EGFL7 (@E7) then assessed for apoptosis using (FIG. 24D) AnnexinV+ staining and FACS; *P<0.05 (FIG. 24E) Immuno-blotting for PARP1 and Casp3 cleavage. (FIG. 24F) Cell differentiation was assessed by CD11B and CD14 staining 96-hours post anti-EGFL7 treatments; *P<0.05. (FIG. 24G) To determine whether activation of NOTCH by DLL4-Fc could be accentuated by anti-EGFL7 treatment, THP-1 cells were first treated with anti-EGFL7 (100 μg/ml) and then cultured on DLL4-FC or IgG-Fc coated plates and then assessed for apoptosis using AnnexinV+ staining and FACS. *P<0.05 DLL4-Fc and anti-EGFL7; vs DLL4-FC+anti-EGFL7. […]

CD34+CB cells = test: CFU assay, CD34+ cord blood cells; type: cell-based; conditions: treated in vitro, vs IgG1 control
Protocol: FIG. 12. Recombinant EGFL7 stimulation leads to expansion of primary CFUs and secondary CFUs in human hematopoietic stem and progenitor cells (HSPCs). […] The number of colonies with more than 50 cells was counted under a light microscope. Right: Cells from the first round of CFU assays were harvested, rinsed with SFEM, and pooled. 5000 cells were then mixed with methylcellulose medium in the absence or presence of 0.25 μM recombinant human EGFL7 and plated onto 2 cm dishes for 10 days. The number of colonies with more than 50 cells was counted under a light microscope. […]
[…] After 10 days of culture, colonies were scored.
To assess the toxicity of Parsatuzumab on normal hematopoiesis, wild type (C57Bl/6J) mice were treated with Parsatuzumab (n=4) and IgG1 control (n=4) with the highest dose previously tested at 50 mpk twice a week for two weeks. Parsatuzumab targets both human and mouse EGFL7 protein. After two weeks of treatment, blood, spleen and BM were harvested and full phenotypic characterization was performed to assess toxicity. […] Full immunophenotypic examination of BM populations was also performed (data not shown due to space constraints). […] To functionally test the effect of Parsatuzumab on normal HSPCs, competitive repopulation BM transplantation (BMT) assays and CFU assays were performed. […]

B1: Parsatuzumab: Anti-human EGFL7 therapeutic antibody (Parsatuzumab) obtained from Creative Biolabs; blocking monoclonal antibody (antibody, chains of the INN, looked up, V domains shown)
VH: EVQLVESGGGLVQPGGSLRLSCAASGYTFIDYYMNWVRQAPGKGLEWVGDINLDNSGTHYNQKFKGRFTISRDKSKNTAYLQMNSLRAEDTAVYYCAREGVYHDYDDYAMDYWGQGTLVTVSS
VL: DIQMTQSPSSLSASVGDRVTITCRTSQSLVHINAITYLHWYQQKPGKAPKLLIYRVSNRFSGVPSRFSGSGSGTDFTLTISSLQPEDFATYYCGQSTHVPLTFGQGTKVEIK
In the case of B1, the “apoptosis (AnnexinV/7AAD)” value (AML cell lines) is listed as “increased apoptosis”, the “HEY1 mRNA” value (HEY1 mRNA) is listed as “increases were also observed” and the overall survival [1] is listed as “increased overall survival”. The tumor size [1] was “decreased tumor size”, the “AnnexinV+ apoptotic cells” value (THP-1 cells) was “increase in AnnexinV+” and the “numbers and types of colonies, CB CD34+ cells” value (CD34+CB cells) was “no significant changes in the numbers or types of colonies”.

Reference: US11702469B2, “Recombinant EGFL7, EGFL7 antibodies, and uses thereof” (Ohio State Innovation Foundation, priority 2017, dated 2023)
